Experimental data reported in patent US20240010720A1 (IOMX THERAPEUTICS, published 2024).
Like-named read-outs stand apart in the source and are kept apart here.

T1: His-tagged extracellular domain (ECD) of human IGSF11 (VSIG3) (human, UniProt Q5DX21 23-241)
T1 construct: partly bought (SinoBiological 13094-H08H); also called IGSF11-HIS; HIS-IGSF11; not shown: HIS6 tag
T1 sequence: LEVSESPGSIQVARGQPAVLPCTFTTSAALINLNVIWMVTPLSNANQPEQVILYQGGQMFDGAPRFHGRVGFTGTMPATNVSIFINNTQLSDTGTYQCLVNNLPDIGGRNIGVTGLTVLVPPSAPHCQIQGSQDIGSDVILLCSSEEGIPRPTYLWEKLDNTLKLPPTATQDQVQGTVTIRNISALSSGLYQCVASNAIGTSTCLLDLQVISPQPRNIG

T2: recombinant human IGSF11 (VSIG3) extracellular domain (ECD) (human, UniProt Q5DX21 23-241, biotinylated where captured on streptavidin)
T2 construct: also called biotinylated recombinant ECD-IGSF11; IGSF11 (ECD domain)
T2 sequence: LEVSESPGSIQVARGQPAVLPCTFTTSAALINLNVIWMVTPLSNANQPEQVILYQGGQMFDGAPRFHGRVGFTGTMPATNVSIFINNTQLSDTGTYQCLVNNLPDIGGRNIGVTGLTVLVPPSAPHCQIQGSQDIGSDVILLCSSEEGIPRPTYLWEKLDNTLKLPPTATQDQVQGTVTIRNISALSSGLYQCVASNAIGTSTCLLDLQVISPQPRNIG

T3: IGSF11 ECD fused to murine-Fc (human; mouse, UniProt Q5DX21 23-241)
T3 construct: also called Fc-fusion IGSF11 ECD; full-length ECD of IGSF11; not shown: murine Fc
T3 sequence: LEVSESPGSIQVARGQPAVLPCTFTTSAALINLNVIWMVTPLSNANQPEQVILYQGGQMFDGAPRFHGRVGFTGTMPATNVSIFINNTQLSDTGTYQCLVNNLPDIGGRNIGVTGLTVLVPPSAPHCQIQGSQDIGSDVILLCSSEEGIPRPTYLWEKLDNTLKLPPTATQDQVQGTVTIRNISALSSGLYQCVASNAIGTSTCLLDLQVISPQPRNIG

B1: human IGSF11 (VSIG3) on cells (receptor)
chain: LEVSESPGSIQVARGQPAVLPCTFTTSAALINLNVIWMVTPLSNANQPEQVILYQGGQMFDGAPRFHGRVGFTGTMPATNVSIFINNTQLSDTGTYQCLVNNLPDIGGRNIGVTGLTVLVPPSAPHCQIQGSQDIGSDVILLCSSEEGIPRPTYLWEKLDNTLKLPPTATQDQVQGTVTIRNISALSSGLYQCVASNAIGTSTCLLDLQVISPQPRNIGLIAGAIGTGAVIIIFCIALILGAFFYWRSKNKEEEEEEIPNEIREDDLPPKCSSAKAFHTEISSSDNNTLTSSNAYNSRYWSNNPKVHRNTESVSHFSDLGQSFSFHSGNANIPSIYANGTHLVPGQHKTLVVTANRGSSPQVMSRSNGSVSRKPRPPHTHSYTISHATLERIGAVPVMVPAQSRAGSLV

How the values were obtained:
[1] = molecular target: T4, scFv-Fc-format of antibody A-015; assay: FACS on monocytes (CD14 gate) from PBMC of healthy volunteer A, labelled secondary antibody; x axis IGSF11 signal
T4 construct: scFv genetically fused to mouse IgG2A Fc; also called anti-IGSF11 scFv-Fc (mouse IgG2A)

[2] = molecular target: T1, His-tagged extracellular domain (ECD) …; assay: ELISA, IgG1
[3] = molecular target: B1; assay: FACS, IgG1-format antibodies; M579-A2-luc cells (M) treated with scrambled control siRNA (SC)
[4] = molecular target: T1, His-tagged extracellular domain (ECD) …; assay: blocking ELISA: antibody pre-incubated with His-tagged IGSF11 ECD, complexes added to immobilised VSIR-Fc; y axis % remaining IGSF11 binding to VSIR, x axis nM IgG per legend
[5] = molecular target: B1; assay: FACS, IgG1-format antibodies; CL-11 cells (C), a line that does not express IGSF11 (specificity control), scrambled control siRNA (SC)
[6] = molecular target: B1; assay: FACS, IgG1-format antibodies; DMS 273 cells (D) treated with IGSF11 siRNA (KD)
[7] = molecular target: B1; assay: FACS, IgG1-format antibodies; CL-11 cells (C), a line that does not express IGSF11 (specificity control), IGSF11 siRNA (KD)
[8] = molecular target: B1; assay: FACS, DMS 273 cells
[9] = molecular target: B1; assay: FACS, IgG1-format antibodies; DMS 273 cells (D) treated with scrambled control siRNA (SC)
[10] = molecular target: T1, His-tagged extracellular domain (ECD) …; assay: ELISA: IgG1-format antibody titrated on coated His-tagged IGSF11; x axis nM IgG, y axis absorbance per legend
[11] = molecular target: B1; assay: FACS, IgG1-format antibodies; M579-A2-luc cells (M) treated with IGSF11 siRNA (KD)
[12] = molecular target: B1; assay: FACS, HEK cells expressing IGSF11
[13] = molecular target: T2, recombinant human IGSF11 (VSIG3) …; assay: SPR, IgG1
[14] = molecular target: T1, His-tagged extracellular domain (ECD) …; assay: blocking ELISA: IgG pre-incubated with His-tagged IGSF11 ECD, complexes added to immobilised VSIR-Fc; y axis % remaining IGSF11 binding, x axis IgG nM per legend
Experimental: All binding steps were for 1 hour at room temperature, and all washing steps were three times washing with PBS/Tween (0.05%).

[15] = molecular target: T2, recombinant human IGSF11 (VSIG3) …; assay: SPR, IgG1; remark: listed apart in the source
[16] = molecular target: T1, His-tagged extracellular domain (ECD) …; assay: blocking ELISA: antibody pre-incubated with His-tagged IGSF11 ECD, complexes added to immobilised VSIR-Fc; y axis % remaining IGSF11 binding to VSIR, x axis nM IgG per legend; remark: listed apart in the source
[17] = molecular target: T2, recombinant human IGSF11 (VSIG3) …; assay: BLI, apparent affinity, IgG captured, IGSF11 ECD 100 nM
Text: Briefly, various APBs were loaded on an optical biosensor via a commercially available Capture System (AHC sensors, ForteBio).

[18] = molecular target: T1, His-tagged extracellular domain (ECD) …; assay: ELISA: IgG1-format antibody titrated on coated His-tagged IGSF11; x axis nM IgG, y axis absorbance per legend; remark: listed apart in the source
[19] = molecular target: T2, recombinant human IGSF11 (VSIG3) …; assay: BLI, IgG1
[20] = molecular target: T1, His-tagged extracellular domain (ECD) …; assay: ELISA EC50 grade, IgG1
[21] = molecular target: T3, IGSF11 ECD fused to murine-Fc; assay: ELISA, IgG
[22] = molecular target: T3, IGSF11 ECD fused to murine-Fc; assay: ELISA: IgG titrated on coated murine-Fc fusion of IGSF11 ECD; x axis IgG nM, y axis absorption per legend
Text: (§1) Expi293 cells (ThermoFisher) were transiently transfected with DNA sequences encoding the applicable IGSF11 domain-mFc fusions according to the manufacturer's instructions, and cultured under conditions suitable to the IGSF11 domain fusion. Cell supernatants were harvested 5 days post transfection and the expressed Fc-protein purified via Protein A affinity chromatography (GE Healthcare). IGSF11 domain Fc-fusion proteins were re-buffered into PBS pH7.4. […] The surface was blocked with 2% (w/v) skim milk powder in PBST. After three wash cycles with PBST, a dilution series of IgG-format ABPs was transferred to the immobilized the Fc-fusion IGSF11 ECD or the IGSF11 domains and incubated for 1 h. After removing all unbound antibodies by 3 wash cycles with PBST, bound IgG ABPs were detected with a goat anti-human IgG antibody conjugated with horseradish peroxidase. After three wash cycles with PBST the ELISA was developed with TMB substrate.

[23] = molecular target: T1, His-tagged extracellular domain (ECD) …; assay: blocking ELISA: antibody pre-incubated with His-tagged IGSF11 ECD, complexes added to immobilised VSIR-Fc; y axis % remaining IGSF11 binding to VSIR, x axis nM IgG per legend; remark: listed apart in the source
[24] = molecular target: T3, IGSF11 ECD fused to murine-Fc; assay: ELISA: IgG titrated on coated murine-Fc fusion of IGSF11 ECD; x axis IgG nM, y axis absorption per legend; remark: listed apart in the source
Text: as §1

T4 sequence (VL, as listed by the source): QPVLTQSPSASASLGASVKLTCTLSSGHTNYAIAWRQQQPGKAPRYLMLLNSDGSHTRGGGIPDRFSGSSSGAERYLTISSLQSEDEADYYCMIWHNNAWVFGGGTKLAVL

Binder | percentage binding (FACS heat-map) [3] [%] | percentage binding (FACS heat-map) [5] [%] | percentage binding (FACS heat-map) [6] [%] | percentage binding (FACS heat-map) [7] [%] | EC50 [8] [nM] | percentage binding (FACS heat-map) [9] [%] | percentage binding (FACS heat-map) [11] [%] | EC50 [12] [nM] | Kd [13] [nM] | Kd [15] [nM] | EC50 [20] [nM] | EC50 [21] [nM] | other results
B1 |  |  |  |  |  |  |  |  |  |  |  |  | binding result [1]: binds
A-019 (IgG1 format) (antibody, V domains shown, human IgG1 format) VH: QVQLVQSGAEVKKPGASVKVSCKASGYTFTGYYMHWVRQAPGQGLEWMGWINPNSGNTGYAQKFQGRVTMTRNTSISTAYMELSSLRSEDTAVYYCARGGQQQLVLDDYWGQGTLVTVSS VL: not shown |  |  |  |  |  |  |  |  |  |  |  |  | binding result [2]: binds
B-002 (chain-swapped IgG1) (antibody, V domains shown, human IgG1 format; also called B2) VH: EVQLVESGGGLIQPGGSLRLSCAASGFTVSSNYMSWVRQAPGKGLEWVSVIYSGGSTYYADSVKGRFTISRDNSKNTLYLQMNSLRAEDTAVYYCARGNPYYYGDLQVNFDYWGQGTLVTVSS VL: QAVVTQEPSLTVSPGGTVTLTCASSTGAVTSGYYPNWFQQKPGQAPRALIYSTSNKHSWTPARFSGSLLGGKAALTLSGVQPEDEAEYYCLLYYGGAWVFGGGTKLTVL | 70.7 | 3 | 8.68 | 4.54 | > 50 | 80.1 | 2.77 | 10 to 50 | 100 to 250 |  |  |  | IC50 (read off the curve) [4]: ~4 nM; EC50 (read off the curve) [10]: ~0.01 nM
A-006 (IgG1 format) (antibody, V domains shown, human IgG1 format; also called A-006-like ABP) VH: EVQLVESGGGLIQPGGSLRLSCAASGFTVSSNYMSWVRQAPGKGLEWVSVIYSGGSTYYADSVKGRFTISRDNSKNTLYLQMNSLRAEDTAVYYCARGNPYYYGDLQVNFDYWGQGTLVTVSS VL: QAVVTQEPSLTVSPGGTVTLTCASSTGAVTSGYYPNWFQQKPGQAPRPLIYSTSNKHSWTPARFSGSLLGGKAALTLSGVQPDDEAEYYCLLYYGGDWVFGGGTKLTVL | 75.3 | 2.31 | 5.72 | 3.04 | > 50 | 81.1 | 2.59 | 10 to 50 |  | 250 to 500 | < 0.02 | < 1 | IC50 (read off the curve) [14]: ~4 nM; IC50 (read off the curve) [16]: ~4 nM; Kd [17]: < 15 nM; EC50 (read off the curve) [18]: ~0.01 nM; Kd [19]: 1 to 10 nM; EC50 (read off the curve) [22]: ~0.5 nM
B-001 (chain-swapped IgG1) (antibody, V domains shown, human IgG1 format; also called B1) VH: EVQLLESGGGLIQPGGSLRLSCAVSGFTVSSNYMSWVRQAPGKGLEWVSVIYSGGSTYYADSVKGRFTISRDNSKNTLYLQMNSLRAEDTAVYYCARGNPYYYGDLQVNFDYWGQGTLVTVSS VL: QAVVTQEPSLTVSPGGTVTLTCASSTGAVTSAYYPNWFQQKPGQAPRALIYSTSNKHSWTPARFSGSLLGGKAALTLSGVQPEDEADYYCLLYYGGAWVFGGGTKLTVL |  |  |  |  |  |  |  | 10 to 50 | 250 to 500 |  |  |  | IC50 (read off the curve) [23]: ~2 nM
A-024 (IgG1 format) (antibody, V domains shown, also called A-024-like ABP) VH: QMQLVQSGAEVKKPGSSVKVSCKASGGTFSSYAISWVRQAPGQGLEWMGWISAYNGNTNYAQKLQGRVTMTTDTSTSTAYMELRSLRSDDTAVYYCASLGSYGYTGAFDIWGQGTMATVSS VL: QSALTQPASVSGSPGQSITISCTGTSSDVGGYNYVSWYQQHPGKAPKLMIYEVSNRPSGVSNRFSGSKSGNTASLTISGLQAEDEADYYCSSYTSSSTLVVFGGGTKLTVL |  |  |  |  | < 10 |  |  |  |  | > 500 | 0.02 to 0.05 | < 1 | EC50 (read off the curve) [24]: ~0.4 nM
